# Measured values reported in patent US20220372155A1 (LYVGEN BIOPHARMA, published 2022).
# B1: Ly404 (bispecific antibody, human IgG1, kappa)
# heavy: EVQLVESGGGVVQPGRSLRLSCSASGFDFTTYWMSWVRQAPGKGLEWIGEIHPDSSTINYAPSLKDRFTISRDNAKNTLFLQMDSLRPEDTGVYFCASLYFGFPWFAYWGQGTPVTVSSASTKGPSVFPLAPSSKSTSGGTAALGCLVKDYFPEPVTVSWNSGALTSGVHTFPAVLQSSGLYSLSSVVTVPSSSLGTQTYICNVNHKPSNTKVDKKVEPKSCDKTHTCPPCPAPELLGPSVFLFPPKPKDTLMISRTPEVTCVVVDVSHEDPEVKFNWYVDGVEVHNAKTKPREEQYNSTYRVVSVLTVLHQDWLNGKEYKCKVSNKALPAPIEKTISKAKGQPREPQVYTLPPSREEMTKNQVSLTCLVKGFYPSDIAVEWESNGQPENNYKTTPPVLDSDGSFFLYSKLTVDKSRWQQGNVFSCSVMHEALHNHYTQKSLSLSPGK
# light: DIQLTQSPSSLSASVGDRVTITCKASQDVGTSVAWYQQKPGKAPKLLIYWTSTRHTGVPSRFSGSGSGTDFTFTISSLQPEDIATYYCQQYSLYRSFGQGTKVEIKRTVAAPSVFIFPPSDEQLKSGTASVVCLLNNFYPREAKVQWKVDNALQSGNSQESVTEQDSKDSTYSLSSTLTLSKADYEKHKVYACEVTHQGLSSPVTKSFNRGECGGGGSGGGGSGGGGSGGGGSQVQLVESGGGLVQPGGSLKLSCATSGFNFNDYFMNWVRQASGKGLEWVGQIRNKNYNYATYYTESLEGRVTISRDDSKNTAYLQMNSLKTEDTAVYYCTSYYYDGFADYFDYWGQGTTVTVSSGGGGSGGGGSGGGGSGGGGSDIQMTQSPSSLSASVGDRVTITCKASQNIYIYLNWYQQKPGKAPKLLIYNTNNLQTGVPSRFSGSGSGTDFTLTISSLQPEDFATYYCLQHSSRRTFGGGTKVEIK
# notes: Ly311 HC (IgG1 mutated Fc) + Ly311 LC-TM740 scFv VH-VL
# B2: Ly407 (bispecific antibody, human IgG1, kappa)
# heavy: EVQLVESGGGLVQPGGSLRLSCAASGFNIKDTYMHWVRQAPGKGLEWVARIDPANGNSKYADSVKGRFTISADTSKNTAYLQMNSLRAEDTAVYYCAPFGYYVSDYAMAYWGQGTLVTVSSASTKGPSVFPLAPSSKSTSGGTAALGCLVKDYFPEPVTVSWNSGALTSGVHTFPAVLQSSGLYSLSSVVTVPSSSLGTQTYICNVNHKPSNTKVDKKVEPKSCDKTHTCPPCPAPELLGPSVFLFPPKPKDTLMISRTPEVTCVVVDVSHEDPEVKFNWYVDGVEVHNAKTKPREEQYNSTYRVVSVLTVLHQDWLNGKEYKCKVSNKALPAPIEKTISKAKGQPREPQVYTLPPSREEMTKNQVSLTCLVKGFYPSDIAVEWESNGQPENNYKTTPPVLDSDGSFFLYSKLTVDKSRWQQGNVFSCSVMHEALHNHYTQKSLSLSPGK
# light: DIQLTQSPSSLSASVGDRVTITCRAGESVDIFGVGFLHWYQQKPGKAPKLLIYRASNLESGVPSRFSGSGSRTDFTLTISSLQPEDFATYYCQQTNEDPYTFGQGTKVEIKRTVAAPSVFIFPPSDEQLKSGTASVVCLLNNFYPREAKVQWKVDNALQSGNSQESVTEQDSKDSTYSLSSTLTLSKADYEKHKVYACEVTHQGLSSPVTKSFNRGECGGGGSGGGGSGGGGSGGGGSDIQMTQSPSSLSASVGDRVTITCKASQNIYIYLNWYQQKPGKAPKLLIYNTNNLQTGVPSRFSGSGSGTDFTLTISSLQPEDFATYYCLQHSSRRTFGGGTKVEIKGGGGSGGGGSGGGGSGGGGSQVQLVESGGGLVQPGGSLKLSCATSGFNFNDYFMNWVRQASGKGLEWVGQIRNKNYNYATYYTESLEGRVTISRDDSKNTAYLQMNSLKTEDTAVYYCTSYYYDGFADYFDYWGQGTTVTVSS
# notes: Ly312 HC (IgG1 mutated Fc) + Ly312 LC-TM740 scFv VL-VH
# B3: Ly408 (bispecific antibody, human IgG1, kappa)
# heavy: B2 heavy
# light: DIQLTQSPSSLSASVGDRVTITCRAGESVDIFGVGFLHWYQQKPGKAPKLLIYRASNLESGVPSRFSGSGSRTDFTLTISSLQPEDFATYYCQQTNEDPYTFGQGTKVEIKRTVAAPSVFIFPPSDEQLKSGTASVVCLLNNFYPREAKVQWKVDNALQSGNSQESVTEQDSKDSTYSLSSTLTLSKADYEKHKVYACEVTHQGLSSPVTKSFNRGECGGGGSGGGGSGGGGSGGGGSQVQLVESGGGLVQPGGSLKLSCATSGFNFNDYFMNWVRQASGKGLEWVGQIRNKNYNYATYYTESLEGRVTISRDDSKNTAYLQMNSLKTEDTAVYYCTSYYYDGFADYFDYWGQGTTVTVSSGGGGSGGGGSGGGGSGGGGSDIQMTQSPSSLSASVGDRVTITCKASQNIYIYLNWYQQKPGKAPKLLIYNTNNLQTGVPSRFSGSGSGTDFTLTISSLQPEDFATYYCLQHSSRRTFGGGTKVEIK
# notes: Ly312 HC (IgG1 mutated Fc) + Ly312 LC-TM740 scFv VH-VL
# B4: Ly405 (bispecific antibody, human IgG1, kappa)
# heavy: EVQLVESGGGLVQPGGSLRLSCAASGFNIKDTYMHWVRQAPGKGLEWVARIDPANGNSKYADSVKGRFTISADTSKNTAYLQMNSLRAEDTAVYYCAPFGYYVSDYAMAYWGQGTLVTVSSASTKGPSVFPLAPSSKSTSGGTAALGCLVKDYFPEPVTVSWNSGALTSGVHTFPAVLQSSGLYSLSSVVTVPSSSLGTQTYICNVNHKPSNTKVDKKVEPKSCDKTHTCPPCPAPELLGPSVFLFPPKPKDTLMISRTPEVTCVVVDVSHEDPEVKFNWYVDGVEVHNAKTKPREEQYNSTYRVVSVLTVLHQDWLNGKEYKCKVSNKALPAPIEKTISKAKGQPREPQVYTLPPSREEMTKNQVSLTCLVKGFYPSDIAVEWESNGQPENNYKTTPPVLDSDGSFFLYSKLTVDKSRWQQGNVFSCSVMHEALHNHYTQKSLSLSPGGGGGSGGGGSGGGGSGGGGSDIQMTQSPSSLSASVGDRVTITCKASQNIYIYLNWYQQKPGKAPKLLIYNTNNLQTGVPSRFSGSGSGTDFTLTISSLQPEDFATYYCLQHSSRRTFGGGTKVEIKGGGGSGGGGSGGGGSGGGGSQVQLVESGGGLVQPGGSLKLSCATSGFNFNDYFMNWVRQASGKGLEWVGQIRNKNYNYATYYTESLEGRVTISRDDSKNTAYLQMNSLKTEDTAVYYCTSYYYDGFADYFDYWGQGTTVTVSS
# light: DIQLTQSPSSLSASVGDRVTITCRAGESVDIFGVGFLHWYQQKPGKAPKLLIYRASNLESGVPSRFSGSGSRTDFTLTISSLQPEDFATYYCQQTNEDPYTFGQGTKVEIKRTVAAPSVFIFPPSDEQLKSGTASVVCLLNNFYPREAKVQWKVDNALQSGNSQESVTEQDSKDSTYSLSSTLTLSKADYEKHKVYACEVTHQGLSSPVTKSFNRGEC
# notes: Ly312 HC (IgG1 mutated Fc)-TM740 scFv VL-VH + Ly312 LC
# B5: Ly406 (bispecific antibody, human IgG1, kappa)
# heavy: EVQLVESGGGLVQPGGSLRLSCAASGFNIKDTYMHWVRQAPGKGLEWVARIDPANGNSKYADSVKGRFTISADTSKNTAYLQMNSLRAEDTAVYYCAPFGYYVSDYAMAYWGQGTLVTVSSASTKGPSVFPLAPSSKSTSGGTAALGCLVKDYFPEPVTVSWNSGALTSGVHTFPAVLQSSGLYSLSSVVTVPSSSLGTQTYICNVNHKPSNTKVDKKVEPKSCDKTHTCPPCPAPELLGPSVFLFPPKPKDTLMISRTPEVTCVVVDVSHEDPEVKFNWYVDGVEVHNAKTKPREEQYNSTYRVVSVLTVLHQDWLNGKEYKCKVSNKALPAPIEKTISKAKGQPREPQVYTLPPSREEMTKNQVSLTCLVKGFYPSDIAVEWESNGQPENNYKTTPPVLDSDGSFFLYSKLTVDKSRWQQGNVFSCSVMHEALHNHYTQKSLSLSPGGGGGSGGGGSGGGGSGGGGSQVQLVESGGGLVQPGGSLKLSCATSGFNFNDYFMNWVRQASGKGLEWVGQIRNKNYNYATYYTESLEGRVTISRDDSKNTAYLQMNSLKTEDTAVYYCTSYYYDGFADYFDYWGQGTTVTVSSGGGGSGGGGSGGGGSGGGGSDIQMTQSPSSLSASVGDRVTITCKASQNIYIYLNWYQQKPGKAPKLLIYNTNNLQTGVPSRFSGSGSGTDFTLTISSLQPEDFATYYCLQHSSRRTFGGGTKVEIK
# light: B4 light
# notes: Ly312 HC (IgG1 mutated Fc)-TM740 scFv VH-VL + Ly312 LC
# Target: T1, human CD40 expressed on CHO cells (human, UniProt P25942 21-277)
# T1 construct: whole, on cells; also used for the reporter cells over-expressing human CD40; also called cellular CD40; CHO-CD40 cells
# Assay: FACS, CHO cells
# T1 sequence (P25942 21-277): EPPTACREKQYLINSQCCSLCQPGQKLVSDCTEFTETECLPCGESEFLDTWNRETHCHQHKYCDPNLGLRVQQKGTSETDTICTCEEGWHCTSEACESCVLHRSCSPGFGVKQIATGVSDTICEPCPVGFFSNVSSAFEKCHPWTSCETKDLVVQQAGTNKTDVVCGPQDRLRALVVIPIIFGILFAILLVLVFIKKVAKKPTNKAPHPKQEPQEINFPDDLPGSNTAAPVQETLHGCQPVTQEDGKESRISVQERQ
row,Binder,binding result
1,B1,binds
2,B2,binds
3,B3,binds
4,B4,binds
5,B5,binds
